Source: patent US5547938A, “Therapeutic agent for digestive tract diseases using glicentin” (Nisshin Flour Milling Co., Ltd., priority 1993, dated 1996)
Ends that are not written are not given here.

Tests used:
intestinal mucosa = assay: Example 2: intestinal mucosal weight in rats after subcutaneous glicentin or control peptides; assay type: in vivo; conditions: 1 nmol per rat s.c.; for Intestinal mucosal weight: third of four equal parts of small intestine from the duodenum
Procedure: A solution of glicentin dissolved in a small amount of distilled water for injection was diluted with a 2% solution of bovine albumin prepared with a physiological saline solution for injection to a concentration of 400 μg/ml (50 nmol/ml). The solution was frozen and stored until used. On use it was 1:10 diluted with the physiological saline solution and subcutaneously given to rats at a dose of 0.2 ml, i.e., 1 nmol of glicentin per rat.
They were prepared and administered in the same way as glicentin at a dose of 1 nmol.
The small intestine was divided equally into four parts and the third part from the duodenum was measured for the weight of the mucosa.

intestinal mucosae = assay: Example 1: nutritional (trophic) effect of glicentin on the intestinal mucosae of rats fed an elemental nutrition; assay type: in vivo, rat; conditions: 10 μg s.c. every 12 hours for 7 days
Procedure: An experiment was performed in male SD rats weighing 140-160 g which had been fed on standard food under light-dark condition of a cycle of 12 hours. The food which was replaced by an elemental nutrition (Elental®, Morishita-Roussel Japan) was taken ad lib., and remained unchanged until the experiment was finished. After feeding on the component nutrition for 3 days, administration of glicentin prepared as described below was started.
Gelatin was dissolved in warm water to a weight ratio of 16%, and the solution autoclaved and cooled to room temperature. To 40 ml of the gelatin solution was added a solution of 1 mg of glicentin in 10 ml of distilled water with stirring at room temperature. The mixture was divided into test tubes, freeze dried and stored for use.
The gelatin solution was subcutaneously given at a dose of 10 μg per glicentin every 12 hours for 7 days to examine a nutritional effect of glicentin on the intestinal mucosae. A similar gelatin solution containing no glicentin was given for the same period of time as a control for comparison. Twelve hours after completion of the final administration, the rats were sacrificed and subjected to removal of the small intestine in the region from the Treitz's ligamentum to the cecum. The removed small intestine was cut at the central site to separate it into the jejunum and the ileum. The lumen of each of the intestinal tracts was gently washed with an aqueous physiological saline solution. The intestinal tracts were longitudinally incised, respectively, and tissues were removed of a portion of the jejunum in proximity to the duodenum, a portion of the ileum in proximity to the cecum and a portion around the boundary between the jejunum and the ileum and fixed in a 3.7% formalin solution as the proximal, distal and middle sites of the small intestine, respectively. Mucosae were collected by ablation with a spatula from the remainder of the intestinal tracts and weighed, respectively.
The tissues fixed in the formalin solution were embedded in paraffin to form a preparation which was stained with hematoxylin-eosin and measured for height of the villi using an optical microscope.

[1] = system: digestive tracts (gastric antrum, duodenum, jejunum); assay: Example 3: motility of the digestive tracts after meal in dogs (strain gauge transducers); assay type: in vivo, dog; conditions: 400 pmol/kg i.v. over 1 hour
Procedure: An experiment was performed as described below in order to examine the action of glicentin on a motility of the digestive tracts after meal.
Six hybrid dogs weighing 16-18 kg were sutured with strain gauge transducers (manufactured by Star Medical, F121S) at a site of the gastric antrum 4 cm from the pyloric ring, a site of the duodenum for the main incurrent pancreatic duct and a site of the jejunum 10 cm from the Treitz's ligamentum, respectively, to measure the contractile force intensity of the circular muscle. Recovery period for the suture was 2 weeks.
Three of the 6 dogs were intravenously given over 1 hour 15 ml of a physiological saline solution in which 400 pmol of glicentin had been dissolved per kg of bodyweight. The remaining three received an aqueous physiological solution containing no glicentin in the same way as above as a control for comparison. The dogs were fed on 15 g of a solid diet (SD®, manufactured by Oriental Yeast K. K.) and 15 g of Vitaone® (manufactured by Nihon Pet Food K. K. and Kyodo Shiryo K. K. ) per kg of bodyweight simultaneously with the intravenous administration.
Then, the motor activity of the digestive tracts and length of the post-feed period were measured. Intensity of the contraction in the post-feed period was integrated for the two-hour measurements and evaluated in comparison with the mean level of the signal peak in phase 3 motor activity of the intestinal tracts in hunger and taken as a motor index.

male BALB/c mice = assay: Intraperitoneal administration of human glicentin to mice, appearance observed; assay type: in vivo, mouse; conditions: 10 mg/kg intraperitoneally, male BALB/c mice (6 weeks age)
[2] = post-feed contraction integrated over two hours relative to phase 3 peak

Molecule: Glucagon-like peptide-1: peptide hormone which occurs in a region of preproglucagon containing no glicentin (HAEGTFTSDVSSYLEGQAAKEFIAWLVKGR; ends and bridges not checked; UniProt P01275 98-127, looked up) [reference compound]
- Intestinal mucosal weight (intestinal mucosa): 0.498 ± 0.042 g

B1: Glicentin: Enteroglucagon peptide comprising 69 amino acid residues (SEQ ID NO:1), prepared by genetic engineering procedure (protein)
chain: RSLQDTEEKSRSFSASQADPLSDPDQMNEDKRHSQGTFTSDYSKYLDSRRAQDFVQWLMNTKRNRNNIA
- effect on weight of intestinal mucosa (in words) (intestinal mucosa; versus control): significantly increases
- Intestinal mucosal weight (intestinal mucosa): 0.614 ± 0.025 g
- Ileal mucosal weight per 100 g bodyweight (intestinal mucosae): 0.57 ± 0.04 g/100 g bodyweight
- Jejunal mucosal weight per 100 g bodyweight (intestinal mucosae): 0.75 ± 0.08 g/100 g bodyweight
- Length of small intestine per 100 g bodyweight (intestinal mucosae): 66.4 ± 1.7 cm/100 g bodyweight
- Whole small intestinal mucosal weight per 100 g bodyweight (intestinal mucosae): 1.32 ± 0.03 g/100 g bodyweight
- Length of post-feed period ([1]; simultaneously with feeding): 13.6 ± 1.0 h
- Motor index, duodenum [1, 2]: 0.675 ± 0.4
- Motor index, jejunum [1, 2]: 1.087 ± 0.2
- Motor index, stomach vestibulum [1, 2]: 0.878 ± 0.1
- change in appearance (male BALB/c mice): no change in appearance
